Test results published in patent US7361741.

Target: enzyme recognising antibody fragments

B1: Human Gastric Lipase (protein)
chain: LFGKLHPGSPEVTMNISQMITYWGYPNEEYEVVTEDGYILEVNRIPYGKKNSGNTGQRPVVFLQHGLLASATNWISNLPNNSLAFILADAGYDVWLGNSRGNTWARRNLYYSPDSVEFWAFSFDEMAKYDLPATIDFIVKKTGQKQLHYVGHSQGTTIGFIAFSTNPSLAKRIKTFYALAPVATVKYTKSLINKLRFVPQSLFKFIFGDKIFYPHNFFDQFLATEVCSREMLNLLCSNALFIICGFDSKNFNTSRLDVYLSHNPAGTSVQNMFHWTQAVKSGKFQAYDWGSPVQNRMHYDQSQPPYYNVTAMNVPIAVWNGGKDLLADPQDVGLLLPKLPNLIYHKEIPFYNHLDFIWAMDAPQEVYNDIVSMISEDKK
enzyme activity assay (DGGR substrate): Approximately 30 to 60% of the enzyme recognising antibody fragments showed to inhibit the enzyme
